From EP3386536A2 (dated 2018)

Target: T1, human FcγRIIIA F158 (human, UniProt P08637 17-208)
T1 construct: also called CD16a F158 variant
Experiment: BLI (Octet Red 96), FcγR on anti-his tag biosensor, conjugate in solution, avidity binding model

T1 sequence (P08637 17-208 limits assumed): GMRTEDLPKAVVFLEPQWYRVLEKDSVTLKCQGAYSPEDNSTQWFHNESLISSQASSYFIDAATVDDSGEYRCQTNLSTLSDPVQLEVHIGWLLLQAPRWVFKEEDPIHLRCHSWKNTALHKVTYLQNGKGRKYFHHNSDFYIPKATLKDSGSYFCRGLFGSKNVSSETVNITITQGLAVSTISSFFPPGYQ

B1: SBT040-G2 ATAC11 (antibody, human IgG2, kappa)
heavy: not shown
light: DIQMTQSPSSVSASVGDRVTITCRASQGIYSWLAWYQQKPGKAPNLLIYTASTLQSGVPSRFSGSGSGTDFTLTISSLQPEDFATYYCQQANIFPLTFGGGTKVEIKRTVAAPSVFIFPPSDEQLKSGTASVVCLLNNFYPREAKVQWKVDNALQSGNSQESVTEQDSKDSTYSLSSTLTLSKADYEKHKVYACEVTHQGLSSPVTKSFNRGEC
modifications: ATAC11 may also sit on light chain cysteines; sites not stated; ATAC11 (maleimide linker with gardiquimod) conjugated by cysteine-based bioconjugation; sites not stated; molar ratio about 4.0
notes: also called SBT-040-G2WT conjugated to ATAC11
For B1, the “fold change against the unconjugated SBT040-G2” value was at most 2 fold.
